{
  "source": "paper PMC7267776",
  "biological_target": "AcrB (from pET21a-acrBΔHis) (E. coli) (UniProt P31224)",
  "assay": "cryo-EM structure; AcrB/DARPin and AcrBZ/DARPin reconstituted in saposin A discs with E. coli lipids, with or without additional 5% cardiolipin; 20 mM Tris-Cl pH 7.5, 150 mM NaCl; 2 mM minocycline (AcrB) or 1 mM chloramphenicol (AcrBZ) added",
  "data": [
    {"substance": "AcrB (from pET21a-acrBΔHis) (from UniProt P31224) (natural protein)", "values": [
      {"measurement": "stoichiometry N", "value": 3}
    ]}
  ]
}
